One experiment deals with Pichia pastoris HCPs. The experiment in a line: Contribution of individual PichiaGuard peptides to HCP binding (flow-through, BCA, proteomics, IgG incubation). Conditions: for number of HCP species bound compared with PichiaGuard: FIGS. 14A-14H; for coverage of HCPs: FIG. 13, by theoretical isoelectric point; for number of HCPs bound (HCP binding density): FIG. 13, proteomics. From the text:
Within HCP binding, it was observed that sequences 5 through 8 display the highest capacity for HCPs, followed by 4, 3 and 1. The same sequences in order also show low to high IgG binding potential, generating a qualitative understanding of binding capacity (Y-axis) and binding selectivity (HCP/IgG).
The color spectrum diverging from blue to red indicates an increasing number of HCPs with specific molecular weight (Y-axis) and theoretical isoelectric points (X-axis) captured by each peptide.
FIGS. 14A-14H compare the total number of identified HCPs bound by individual peptides with that of the PichiaGuard ensemble.
Analysis of PichiaGuard Peptide Contributions to HCP Binding: Contributions of individual peptides comprising PichiaGuard were discerned in terms of their binding to Pichia pastoris HCPs “by-sequence”. These studies comprised of the flow-through purification of null Pichia culture fluids (no recombinant protein), subsequently purified using chromatographic columns packed with individual peptides. The fluids were purified at a 1-minute residence time and flow-through fractions were collected across time for the identification of bound and unbound HCPs (see chromatograms in FIG. 11A). These fractions were analyzed using total protein quantification assay (BCA) and compared with that of the load sample to compute HCP log-reduction value for each individual sequence (FIG. 11B, left). Simultaneously, 25 μL of each peptide was incubated with a range of IgG concentrations (0.1-30 mg/mL resin) overnight to understand their binding propensities to the competitor molecules under non-competitive conditions. Protein content in the supernatant was estimated and compared to the initial concentrations to observe IgG binding (FIG. 11B, right). All flow-through fractions were analyzed through the proteomics workflow (as described further herein) to identify unbound HCPs and overall, correlate peptide and HCP properties. Briefly, label free quantification was performed to identify HCPs within each flow-through fraction and compared to the feed sample used within the experiment. The data was first grouped as a function of time for each peptide and data filters were applied based on the abundance ratio to label bound and unbound HCPs, at different confidence levels based on the number of fractions they were identified in. Concurrently, the “Peptides” package within RStudio was utilized to calculate sequence-based properties of each HCP such as polarity, H-bonding, hydrophobicity and charge.

The target in experiment [1] is K. phaffii host cell proteins (HCPs). The experiment in a line: flow-through chromatography, acetate buffer, RT 1 min, up to 10 CVs.
Experiment [2] shares this target. Put plainly: flow-through chromatography, acetate buffer, RT 1 min, up to 40 CVs.
Experiment [3] shares this target. The experiment in a line: flow-through chromatography, RT 1 min.
Experiment [4] has the same target. The experiment in a line: flow-through chromatography, DOE study.
For experiment [5] the target is unchanged. The experiment in a line: static binding, Langmuir isotherm fit; acetate buffer pH 5.7.
Experiment [6] shares this target. The experiment in a line: flow-through chromatography of ScFv13R4 harvest, nanoLC-MS/MS.
Experiment [7] shares this target. The experiment in a line: static binding, Langmuir isotherm fit; phosphate buffer pH 7.1-7.2.
The target is the same in experiment [8]. The experiment in a line: flow-through chromatography, acetate buffer, RT 1 min, up to 20 CVs.
Experiment [9] shares this target. Put plainly: flow-through chromatography, acetate buffer, RT 1 min, up to 100 CVs.
Experiment [10] has the same target. Put plainly: flow-through chromatography of mAb harvest, acetate buffer, load up to 15 mg/mL.
Experiment [11] has the same target. Put plainly: static binding, Langmuir isotherm fit, HCPs treated as a single species; acetate buffer pH 5.7.
Experiment [12] has the same target. Put plainly: static binding, Langmuir isotherm fit, HCPs treated as a single species; phosphate buffer pH 7.1-7.2; pH 7.15.
For experiment [13] the target is unchanged. Put plainly: flow-through chromatography of ScFv13R4 harvest, 20 mM sodium acetate pH 5.7, RT 1 min; protein loading 2.10 g/L resin.
For experiment [14] the target is unchanged. The experiment in a line: flow-through chromatography of ScFv13R4 harvest, 20 mM sodium acetate pH 5.7, RT 1 min; protein loading 3.90 g/L resin.
For experiment [15] the target is unchanged. Put plainly: flow-through chromatography of ScFv13R4 harvest, 20 mM sodium acetate pH 5.7, RT 1 min; protein loading 5.10 g/L resin.
The target is the same in experiment [16]. Put plainly: flow-through chromatography of ScFv13R4 harvest, 20 mM sodium acetate pH 5.7, RT 1 min; protein loading 6.30 g/L resin.
Experiment [17] shares this target. Put plainly: flow-through chromatography of ScFv13R4 harvest, 20 mM sodium acetate pH 5.7, RT 1 min; protein loading 7.50 g/L resin.
Experiment [18] shares this target. Put plainly: flow-through chromatography of ScFv13R4 harvest, 20 mM sodium acetate pH 5.7, RT 1 min; protein loading 9.30 g/L resin.
Experiment [19] shares this target. The experiment in a line: flow-through chromatography of ScFv13R4 harvest, 20 mM sodium acetate pH 5.7, RT 1 min; protein loading 14.40 g/L resin.
For experiment [20] the target is unchanged. The experiment in a line: flow-through affinity chromatography.
Experiment [21] has the same target. The experiment in a line: flow-through chromatography, 30th CV mark.
Experiment [22] has the same target. The experiment in a line: flow-through chromatography, around the 30th CV.
The target is the same in experiment [23]. The experiment in a line: flow-through purification of scFv perfusate, Pichia pastoris HCP ELISA; 150 CV load. A general note: ELISA stands for enzyme-linked immunosorbent assay.
Experiment [24] shares this target. The experiment in a line: flow-through chromatography, DOE study, acetate buffer.
Experiment [25] shares this target. The experiment in a line: flow-through chromatography, DOE study, phosphate buffer.

For WYKK [Peptide 6], in the experiment on Pichia pastoris HCPs, the “number of HCP species bound compared with PichiaGuard” value was “binding most species”.
In the case of VWHH [Peptide 7], in the experiment with Pichia pastoris HCPs, the “coverage of HCPs” value is recorded as “broad coverage of HCPs with varying pI” and the “number of HCP species bound compared with PichiaGuard” value is “binding most species”.
RYWV [Peptide 8]: the “number of HCPs bound (HCP binding density)” value (from here on “number of HCPs bound”) with Pichia pastoris HCPs is on record as “least number of HCPs”.
As for RYWK [Peptide 2], the “selectivity (HCP vs IgG binding)” value in the experiment on Pichia pastoris HCPs (FIG. 14I, non-competitive conditions) is recorded as “poor selectivity”.
As to YHKH [Peptide 1], in the experiment on Pichia pastoris HCPs, the “coverage of HCPs” value is “broad coverage of HCPs with varying pI”, the “number of HCPs bound” value is reported as “High HCP binding densities” and the “number of HCP species bound compared with PichiaGuard” value was “binding most species”.
Take QEKK [Peptide 5]: the “coverage of HCPs” value in the experiment on Pichia pastoris HCPs is “broad coverage of HCPs with varying pI”.
In the case of EWAK [Peptide 4], in the experiment on Pichia pastoris HCPs, the “coverage of HCPs” value is “broad coverage of HCPs with varying pI”, the “number of HCPs bound” value is given as “High HCP binding densities” and the “number of HCP species bound compared with PichiaGuard” value was “binding most species”.
For CHO LigaGuard™ resin, the cumulative HCP LRV in experiment [1] was in the range of 1 to 1.5 LRV; in experiment [2], 0.45 to 0.55 LRV.

B1: PichiaGuard-TP650M resin (peptide)
peptide 1: YHKH
peptide 2: RYWK
peptide 3: RWYQ
peptide 4: EWAK
peptide 5: QEKK
peptide 6: WYKK
peptide 7: VWHH
peptide 8: RYWV
modifications: bound to Toyopearl AF-Amino-650M resin
B1 showed a fold change of HCP clearance activity, phosphate buffer against acetate buffer in experiment [3] of 10 fold lower. In [4], this molecule displayed an HCP LRV of 3 LRV. For the same molecule, the results for the Qmax (maximum binding capacity) (mg HCP per mL resin) in [5] and in experiment [7] were 25.4 and 18.3, respectively. The same molecule displayed a % of HCPs completely removed in experiment [6] above 84%. In experiment [6], the % of HCPs partially cleared came out at 15%. Moreover, the cumulative HCP LRV in [1] was above 2 LRV; in experiment [8] it was 1.5 to 2 LRV; in experiment [9] it was 1.3 LRV; in [13], 3 LRV; in experiment [14], 2.55 LRV; in [15], 1.92 LRV. Besides, the cumulative HCP LRV in experiment [16] was 1.55 LRV; in experiment [17], 1.34 LRV; in experiment [18], 1.14 LRV; in experiment [19], 1.01 LRV. This molecule also gave an overall HCP LRV in experiment [10] of 1.15 LRV. The Kd (in general, the constant that tells how readily two partners part at equilibrium) in [11] is 17.5 µM; in experiment [12], 30 µM.

B2: PichiaGuard (peptide)
peptide 1: YHKH
peptide 2: RYWK
peptide 3: RWYQ
peptide 4: EWAK
peptide 5: QEKK
peptide 6: WYKK
peptide 7: VWHH
peptide 8: RYWV
modifications: bound to a chromatographic resin; which Toyopearl base is not said at these places
Take B2: the % reduction of HCPs and hcDNA in [20] was below 99%. Besides, in [21], the load at saturation as % of Qmax is 75 % of Qmax and the load ratio at saturation (g of HCPs per L of resin) was found to be 18. Also, in experiment [22], the cumulative LRV at plateau was 1 LRV and the fractional LRV was below 0.5 LRV. Moreover, the HCP removal (logs) in experiment [23] was 1.7 logs.

B3: PichiaGuard-TP50F resin (peptide)
peptide 1: YHKH
peptide 2: RYWK
peptide 3: RWYQ
peptide 4: EWAK
peptide 5: QEKK
peptide 6: WYKK
peptide 7: VWHH
peptide 8: RYWV
modifications: bound to aminated Toyopearl HW-50F resin
On to B3, for which the HCP LRV in experiment [24] was 0.7 to 0.9 LRV; in experiment [25], 0.8 to 1 LRV.
